# According to PMC9266650:
# Legend:
# [1] = target: Skeletal actin, unmodified (0% ADPR-actin control) (not stated (purified from rabbit or chicken skeletal muscle)) (UniProt P68135)
# [2] = target: T148-ADP-ribosylated-actin (100% TccC3-ADP-ribosylated actin) (not stated (purified from rabbit or chicken skeletal muscle)) (UniProt P68135); experiment: fluorescence polarisation
substance,measurement,setting,value
Thymosin-β4 (peptide),"time at which 50% of actin is polymerized (t1/2); 2.5 µM pyrene-labeled (5%) G-actin, 0% modified, with 2.5 µM TMSB4",[1],2.04 h
same,fold reduction of affinity against unmodified actin,[2],6.4 fold
